Results: patent publication US20220354880A1, “COMBINATION TREATMENT FOR CANCER” (AstraZeneca AB, priority 2019, published 2022)

B1: MEDI4736: anti-PD-L1 antibody selective for a PD-L1 polypeptide; SEQ ID NOs: 3-10 (antibody, V domains shown)
VH: EVQLVESGGGLVQPGGSLRLSCAASGFTFSRYWMSWVRQAPGKGLEWVANIKQDGSEKYYVDSVKGRFTISRDNAKNSLYLQMNSLRAEDTAVYYCAREGGWFGELAFDYWGQGTLVTVSS
VL: EIVLTQSPGTLSLSPGERATLSCRASQRVSSSYLAWYQQKPGQAPRLLIYDASSRATGIPDRFSGSGSGTDFTLTISRLEPEDFAVYYCQQYGSLPWTFGQGTKVEIK
modifications: MEDI4736 VH; Sequence 72 from PCT/US2010/058007; MEDI4736 VL; Sequence 77 from PCT/US2010/058007

Columns and labels:
MC-38 OVA = experiment: Low dose cisplatin anti-tumor activity in MC-38 OVA mice; type: in vivo; conditions: cisplatin 5 mg/kg (approximately 60 mg/m^2 human dose)
Experimental: FIGS. 1A-1C relate to Example 1.
A low dose treatment of cisplatin, 5 mg/kg (equivalent to approximately 60 mg/m^2 human dose) was tested for anti-tumor activity in MC-38 OVA mice.

human T-cell = conditions: in vitro; cited from earlier work
xenograft model = conditions: via a T-cell dependent mechanism; cited from earlier work

Molecule | anti-tumor activity (tumor growth inhibition) (MC-38 OVA) | PD-L1-mediated suppression of human T-cell activation (human T-cell) | tumor growth in a xenograft model (xenograft model)
N.N.[Cl][Pt][Cl] [cisplatin] | produces most tumor growth inhibition | – | –
B1 | – | can relieve PD-L1-mediated suppression of human T-cell activation in vitro | inhibit tumor growth in a xenograft model
